Experimental data taken from patent US20240084003A1 (SIMCERE ZAIMING PHARMACEUTICAL, published 2024).
Values belong to the binder of their own block, whether it stands above or below them.

Columns and labels:
[1] = target: T1, murine CD22 protein (ACROBiosystems, SI2-M52Ha) (murine, UniProt P35329 22-708); experiment: ELISA, coated murine CD22, 0.001 nM Ab
T1 construct: extracellular domain; also called murine CD22-ECD; murine CD22-ECD-His
T1 sequence (looked up): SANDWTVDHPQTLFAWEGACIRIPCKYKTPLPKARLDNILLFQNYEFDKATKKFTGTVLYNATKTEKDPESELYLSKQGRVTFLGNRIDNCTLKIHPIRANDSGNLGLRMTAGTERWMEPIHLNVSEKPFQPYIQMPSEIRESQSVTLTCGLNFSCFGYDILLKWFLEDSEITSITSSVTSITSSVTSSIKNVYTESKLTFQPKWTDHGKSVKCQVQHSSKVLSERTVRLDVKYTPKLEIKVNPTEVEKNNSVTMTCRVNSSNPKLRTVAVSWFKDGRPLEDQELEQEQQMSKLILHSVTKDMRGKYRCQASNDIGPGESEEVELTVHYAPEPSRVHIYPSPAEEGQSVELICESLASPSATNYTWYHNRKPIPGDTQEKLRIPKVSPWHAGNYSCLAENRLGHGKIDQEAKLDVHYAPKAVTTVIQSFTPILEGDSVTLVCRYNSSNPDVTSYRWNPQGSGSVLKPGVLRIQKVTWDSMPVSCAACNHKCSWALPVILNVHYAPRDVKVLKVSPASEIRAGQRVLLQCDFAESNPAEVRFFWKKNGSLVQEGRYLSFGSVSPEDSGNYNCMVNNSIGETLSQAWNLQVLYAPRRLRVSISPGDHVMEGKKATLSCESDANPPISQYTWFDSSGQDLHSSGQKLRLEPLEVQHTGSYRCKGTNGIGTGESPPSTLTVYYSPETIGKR
Procedure: (§1) In order to detect the binding activity of CD22 human-murine chimeric antibodies to CD22 protein, the purified human CD22-ECD-His protein obtained in Example 2 was diluted with PBS to a final concentration of 2 μg/mL, and then added to 96-well ELISA plate at 100 μl/well. The plate was sealed with plastic film and incubated overnight at 4° C., the plate was washed 2 times with PBS the next day, and then a blocking solution [PBS+2% (w/w) BSA] was added for blocking at room temperature for 2 hours. […] After incubation at 37° C. for 2 hours, the plate was washed 3 times with PBS. HRP (horseradish peroxidase)-labeled secondary antibody (purchased from Sigma, catalog number: A0170) was added, and incubated at 37° C. for 2 hours, and the plate was washed 5 times with PBS. TMB substrate was added at 50 μl/well, and incubated at room temperature for 30 minutes, then a stop solution (1.0 N HCl) was added at 50 μl/well.
(§2) In order to detect the species cross-binding activity of the chimeric antibodies, an ELISA plate was coated with commercial murine CD22 protein (ACROBiosystems, catalog number: SI2-M52Ha) and monkey CD22 protein (ACROBiosystems, catalog number: SI2-R52Ha), respectively, and the ELISA detection was performed according to the method in Example 5.1.

[2] = target: T1, murine CD22 protein (ACROBiosystems, …); experiment: ELISA, coated murine CD22, 0.0001 nM Ab
Procedure: as §1, §2

[3] = target: T1, murine CD22 protein (ACROBiosystems, …); experiment: ELISA, coated murine CD22, 10 nM Ab
Procedure: as §1, §2

[4] = target: T1, murine CD22 protein (ACROBiosystems, …); experiment: ELISA, coated murine CD22, 0.00001 nM Ab
Procedure: as §1, §2

[5] = target: T2, human CD22, endogenous on Raji cells (human, UniProt P20273 20-847); experiment: FACS, Raji cells
T2 construct: whole, on cells; Endogenous protein of the Raji cell line
T2 sequence (looked up): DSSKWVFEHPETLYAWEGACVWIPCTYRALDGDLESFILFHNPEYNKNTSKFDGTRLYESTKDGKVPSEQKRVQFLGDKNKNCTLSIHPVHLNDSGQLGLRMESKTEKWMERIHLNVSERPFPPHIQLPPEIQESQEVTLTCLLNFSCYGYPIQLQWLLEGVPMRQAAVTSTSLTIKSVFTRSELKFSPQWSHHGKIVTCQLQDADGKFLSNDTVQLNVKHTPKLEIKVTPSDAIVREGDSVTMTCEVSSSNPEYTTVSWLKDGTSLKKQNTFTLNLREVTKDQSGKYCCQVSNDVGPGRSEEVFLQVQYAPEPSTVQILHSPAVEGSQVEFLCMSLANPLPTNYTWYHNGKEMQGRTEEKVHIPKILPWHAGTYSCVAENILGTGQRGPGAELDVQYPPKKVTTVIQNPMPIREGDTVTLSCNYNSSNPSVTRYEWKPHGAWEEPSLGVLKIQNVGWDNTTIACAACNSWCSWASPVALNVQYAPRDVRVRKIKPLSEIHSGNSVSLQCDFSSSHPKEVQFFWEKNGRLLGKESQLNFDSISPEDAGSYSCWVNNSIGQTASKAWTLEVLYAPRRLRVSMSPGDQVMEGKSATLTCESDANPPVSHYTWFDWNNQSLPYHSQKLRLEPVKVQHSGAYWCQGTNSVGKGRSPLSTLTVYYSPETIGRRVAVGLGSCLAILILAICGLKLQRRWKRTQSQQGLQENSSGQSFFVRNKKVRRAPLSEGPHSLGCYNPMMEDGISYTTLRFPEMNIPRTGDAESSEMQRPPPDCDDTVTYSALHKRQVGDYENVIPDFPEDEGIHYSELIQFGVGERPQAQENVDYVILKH
Excerpt: (§3) The required cells were scale-up cultured in a T-75 cell culture flask to the logarithmic growth phase. For the adherent cell CHO-K1, the medium was aspirated, the cells were washed 2 times with PBS buffer, and then digested with trypsin. After the digestion was terminated, the cells were washed 2 times with PBS buffer. For suspension cell Raji, the medium supernatant was directly centrifuged and discarded, and the cell pellet was washed 2 times with PBS. After counting the cells in the previous step, the cell pellet was resuspended with [PBS+2% (w/w) BSA] blocking solution to 2×10⁶ cells/ml, and added to a 96-well FACS reaction plate at 50 μl/well, and then the chimeric antibody test sample was added at 50 μl/well, and incubated on ice for 2 hours. The mixture was centrifuged and washed 3 times with PBS buffer, Alexa Flour 488-labeled secondary antibody (purchased from Invitrogen, catalog number: A-11013) was added at 50 μl/well, and incubated on ice for 1 hour. The obtained mixture was centrifuged and washed 5 times with PBS, and FACS (FACS Canto™, purchased from BD Company) was used for detection and result analysis. Data analysis was performed by software (CellQuest) to obtain the mean fluorescence density (MFI)of the cells. And then software (GraphPad Prism8) was used for analysis, data fitting, and EC50 value calculation. […] The same method was used to detect the binding of the chimeric antibodies to endogenous CD22-negative cell MoLT4 cells (purchased from ATCC, CRL-1582) and CHO-K1 cells.

[6] = target: T1, murine CD22 protein (ACROBiosystems, …); experiment: ELISA, coated murine CD22, 100 nM Ab
Procedure: as §1, §2

[7] = target: T3, human CD22, full length, on CHO-K1-human CD22 2C4 cells (human, UniProt P20273 20-847); experiment: FACS, CHO-K1-human CD22 2C4 cells
T3 construct: Full-length human CD22 (NCBI NP_001762.2) stably transfected into CHO-K1
T3 sequence: T2 sequence (looked up)
Excerpt: as §3

[8] = target: T1, murine CD22 protein (ACROBiosystems, …); experiment: ELISA, coated murine CD22, 0.01 nM Ab
Procedure: as §1, §2

[9] = target: T1, murine CD22 protein (ACROBiosystems, …); experiment: ELISA, coated murine CD22, 0.1 nM Ab
Procedure: as §1, §2

OD450 [1]: 0.05 OD450
OD450 [2]: 0.05 OD450
OD450 [3]: 0.07 OD450
OD450 [4]: 0.06 OD450
EC50 [5]: 0.27 nM
Maximum mean fluorescence intensity [5]: 29300 MFI
OD450 [6]: 0.2 OD450
EC50 [7]: 0.68 nM
Maximum mean fluorescence intensity [7]: 46600 MFI
OD450 [8]: 0.05 OD450
OD450 [9]: 0.05 OD450
B2: F1.257.3 human-murine chimeric antibody (antibody, human IgG1, kappa, V domains shown)
VH: QVQLQQSGPELARPGASVKLSCKASGYTFTSYGISWVKQRTGQDLEWIGEIYPKLGTTYYNEKFKDKATLTTDRSSSTAYMALRSLTSEDSAVYFCACPHYYATRGGDYWGQGTTLTVSS
VL: EIVLTQSPATLSVTPGDSVTFSCRASQSISNHLHWYQQKSHESPRLLIRYASQSISGIPSRFSGSGSGTDFTLSLSSVETEDFGVYFCQQSHSWPYTFGGGTKLEIAR
notes: Chimeric, human IgG1 / kappa; VL tied by name

OD450 [1]: 0.06 OD450
OD450 [2]: 0.07 OD450
OD450 [3]: 0.07 OD450
OD450 [4]: 0.06 OD450
EC50 [5]: 0.07 nM
Maximum mean fluorescence intensity [5]: 29900 MFI
OD450 [6]: 0.09 OD450
EC50 [7]: 0.33 nM
Maximum mean fluorescence intensity [7]: 43300 MFI
OD450 [8]: 0.06 OD450
OD450 [9]: 0.06 OD450
B3: F1.245.2 human-murine chimeric antibody (antibody, human IgG1, kappa, V domains shown)
VH: EVQLQQSGAELVKPGASVKLSCTGSGFNIKDYYIHWVKQRTEQGLEWMGRIDPEDGETEYAPKFQDEATITSDTSSNTAYLQLSSLTYEDTAVYYCAREAAGYFYRGSSYGYFDVWGTGTTVTVSS
VL: DFQMTQTTSFLSASLGDRVTISCSASQDISNYLNWYQQKPDGTVKLLIYYTSSLHSGVPSRFSGSGSGTDYSLTISNLEPEDIATYYCQQYSMLPYTFGGGTKLEMER
notes: Chimeric, human IgG1 / kappa

OD450 [1]: 0.05 OD450
OD450 [2]: 0.06 OD450
OD450 [3]: 0.06 OD450
OD450 [4]: 0.06 OD450
EC50 [5]: 0.17 nM
Maximum mean fluorescence intensity [5]: 23800 MFI
OD450 [6]: 0.08 OD450
EC50 [7]: 0.59 nM
Maximum mean fluorescence intensity [7]: 33800 MFI
OD450 [8]: 0.05 OD450
OD450 [9]: 0.05 OD450
B4: F1.172.13 human-murine chimeric antibody (antibody, human IgG1, kappa, V domains shown)
VH: QVTLKESGPGILQSSQTLSLTCSFSGFSLSTSGMGVSWIRQPSGKGLEWLAHIYWDDDKRYNPSLKSRLTISKDTSRNQVFLKITSVDTADTATYYCARAPPPNWDEYYFDYWGQGTTLTVSS
VL: DIQMTQSPASLSASVGETVTITCRASGNIHNSLAWYQQKQGKSPQLLVHNAKTLADGVPSRFSGSGSGTQYSLKINSLQPEDFGSYYCQHFWSTPPFGGGTKLEIKR
notes: Chimeric, human IgG1 / kappa

Continued, binder first:

B1: F1.60.9 human-murine chimeric antibody (antibody, human IgG1, kappa, V domains shown)
VH: QVQLKESGPGLVAPSQSLSITCTVSGLSLNNYGVSWVRQPPGKGLEWLGVIWGDGSTNYHSALISRLSISKDNSKSQVFLKLNSLHTDDTATYYCAINWGDYWGQGTTLIVSS
VL: DIKMTQSPSSMNASLGERVTITCKASQDINSYLSWFQQKPGKSPKILIYRANRLIDGVPSRFSGSGSGQDYSLTISSLEYEDMGIYYCLQYGVFPLTFGAGTKLELKR
notes: Chimeric, human IgG1 / kappa
OD450 [1]: 0.05 OD450
OD450 [2]: 0.06 OD450
OD450 [3]: 0.06 OD450
OD450 [4]: 0.06 OD450
EC50 [5]: 0.29 nM
Maximum mean fluorescence intensity [5]: 25300 MFI
OD450 [6]: 0.08 OD450
EC50 [7]: 0.61 nM
Maximum mean fluorescence intensity [7]: 30100 MFI
OD450 [8]: 0.06 OD450
OD450 [9]: 0.05 OD450

B5: F1.17.1 human-murine chimeric antibody (antibody, human IgG1, kappa, V domains shown)
VH: QVQLKESGPGLVAPSQSLSITCTVSGFSLSRYTVHWVRQPPGKGLEWLGMIWGGGSTDYNSALKSRLSISKDNSKSQVFLKMNSLQTDDTAMYYCARPHDFDAGGFAYWGQGTLVTVSA
VL: QIVLTQSPAILSTSPGEKVTMTCSASSRVNYMYWYQQKPGSSPRLLIYDTSNLASGVPVRFSGSGSGTSYSLTISRMEAEDAATYYCQQWTSYPLTFGAGTKLELKR
notes: Chimeric, human IgG1 / kappa
OD450 [1]: 0.05 OD450
OD450 [2]: 0.05 OD450
OD450 [3]: 0.06 OD450
OD450 [4]: 0.06 OD450
EC50 [5]: 0.17 nM
Maximum mean fluorescence intensity [5]: 28500 MFI
OD450 [6]: 0.07 OD450
EC50 [7]: 0.44 nM
Maximum mean fluorescence intensity [7]: 36900 MFI
OD450 [8]: 0.05 OD450
OD450 [9]: 0.05 OD450

B6: F1.161.7 human-murine chimeric antibody (antibody, human IgG1, kappa, V domains shown)
VH: QVQLQQPGAELVKPGASVKMSCKASGYTFTSYWISWVKQRPGQGLEWIGDIYPGTGSSNYNEKFKSKATLTVDTSSSTAYMQLSSLTSEDSAVYYCARLKFEGIGYWGQGTTLTVSS
VL: QIVLTQSPAIMSASLGEEITLTCSASSSVSYMHWFQQKSGTSPKLLIYSISNLASGVPSRFSGSGSGTFYSLTISSVEAEDAADYYCHQWSSYPWTFGGGTKLEIKR
notes: Chimeric, human IgG1 / kappa
OD450 [1]: 0.05 OD450
OD450 [2]: 0.05 OD450
OD450 [3]: 0.06 OD450
OD450 [4]: 0.06 OD450
EC50 [5]: 0.22 nM
Maximum mean fluorescence intensity [5]: 27900 MFI
OD450 [6]: 0.08 OD450
EC50 [7]: 0.59 nM
Maximum mean fluorescence intensity [7]: 37100 MFI
OD450 [8]: 0.05 OD450
OD450 [9]: 0.05 OD450
